Experiment: GD3 binding ELISA of transient expression (COS-7) culture supernatants
Conditions: COS-7 culture supernatant; FIG. 14, FIG. 17
Protocol: Each ganglioside (2 nmol) was dissolved in […] of ethanol solution containing 10 μg of dipalmitoylphosphatidylcholine (manufactured by SIGMA) and 5 μg of cholesterol (manufactured by SIGMA). In each well of a 96 well plate for ELISA (manufactured by Greiner), 20 μl of the solution (becomes 20 pmol/well) or 20 μl of the solution diluted with ethanol was respectively dispensed, followed by air-drying, and then PBS containing 1% BSA (hereinafter referred to as “1% BSA-PBS”) was added in 100 μl/well and allowed to react at room temperature for 1 hour to thereby block remaining active groups. After discarding 1% BSA-PBS, culture supernatants of transformants or diluted solutions of humanized antibodies were added in 50 μl/well and allowed to react at room temperature for 1 hour. […] After the reaction and subsequent washing with Tween-PBS, an ABTS substrate solution (a solution prepared by dissolving 0.55 g of 2,2′-azinobis(3-ethylbenzothiazoline-6-sulfonic acid) in 1 L of 0.1 M citrate buffer (pH 4.2) and adding 1 μl/ml hydrogen peroxide just before the use) was added in 50 μl/well for color development and the absorbance at 415 nm (hereinafter referred to as “OD415”) was measured. […]

B1: pT641HLCDR: anti-GD3 CDR-grafted antibody by transient expression; VH hKM641H (SEQ ID NO:9), VL hKM641L (SEQ ID NO:10) (antibody, V domains shown)
VH: EVQLVESGGDFVQPGGSLRVSCAASGFAFSHYAMSWVRQAPGKGLEWVAYISSGGSGTYYSDSVKGRFTISRDNSKNTLYLQMRSLRAEDSAVYFCTRVKLGTYYFDSWGQGTLLTVSS
VL: DIQMTQSPSSLSASVGDRVTITCSASQDISNYLNWYQQKPDKAPKLLIFYSSNLHSGVPSRFSGGGSGTDYTLTISSLQPEDIATYFCHQYSKLPWTFGQGTKVEIKR
relative activity (%) of binding to GD3 when the activity of anti-GD3 chimeric antibody is defined as 100: about 5%
